Test results published in paper doi:10.1101/2022.06.13.496009.

Biological target: T1, SALL4 ZFC4 (human, UniProt Q9UJQ4 856-930)
T1 sequence: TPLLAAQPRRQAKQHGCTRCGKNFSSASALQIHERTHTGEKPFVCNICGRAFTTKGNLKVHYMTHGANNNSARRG
Experiment: ITC

B1: 12-mer T3C/A3'G (dsDNA)
DNA 1: GGCAATATTTCC
DNA 2: GGAAATATTGCC
Kd: ~9.95 µM
